Test results taken from article PMC10786891, “Massively parallel profiling of RNA-targeting CRISPR-Cas13d”.

T1: EsCas13d, nuclease-dead (Eubacterium siraeum, UniProt B0MS50, R295A;H300A;R849A;H854A)
T1 sequence: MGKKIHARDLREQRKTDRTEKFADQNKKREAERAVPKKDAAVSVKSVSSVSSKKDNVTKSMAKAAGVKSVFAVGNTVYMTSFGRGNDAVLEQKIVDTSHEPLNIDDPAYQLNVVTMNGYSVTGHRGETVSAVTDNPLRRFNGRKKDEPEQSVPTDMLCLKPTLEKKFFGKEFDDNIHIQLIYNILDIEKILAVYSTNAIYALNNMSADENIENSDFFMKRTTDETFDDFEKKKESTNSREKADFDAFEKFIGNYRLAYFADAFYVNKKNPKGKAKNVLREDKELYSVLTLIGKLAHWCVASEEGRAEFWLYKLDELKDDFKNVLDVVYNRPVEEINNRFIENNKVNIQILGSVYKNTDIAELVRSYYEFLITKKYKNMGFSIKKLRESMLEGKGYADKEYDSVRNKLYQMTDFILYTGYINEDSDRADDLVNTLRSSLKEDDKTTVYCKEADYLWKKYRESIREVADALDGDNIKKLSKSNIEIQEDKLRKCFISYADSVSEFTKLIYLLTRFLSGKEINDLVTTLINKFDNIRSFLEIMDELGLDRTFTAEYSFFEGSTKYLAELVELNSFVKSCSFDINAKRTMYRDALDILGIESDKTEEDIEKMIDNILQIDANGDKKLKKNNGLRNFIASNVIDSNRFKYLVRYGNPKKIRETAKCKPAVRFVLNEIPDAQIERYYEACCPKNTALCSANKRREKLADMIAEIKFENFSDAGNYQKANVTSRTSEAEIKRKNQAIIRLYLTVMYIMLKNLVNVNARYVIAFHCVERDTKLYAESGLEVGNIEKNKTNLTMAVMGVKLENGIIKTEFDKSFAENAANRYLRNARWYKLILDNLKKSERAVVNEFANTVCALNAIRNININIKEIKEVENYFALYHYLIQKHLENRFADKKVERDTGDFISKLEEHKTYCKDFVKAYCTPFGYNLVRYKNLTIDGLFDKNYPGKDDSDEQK


The binders below were run against T1, EsCas13d, nuclease-dead (assay: crRNA (strand 1, pre-loaded); Mg2+; 40 mM Tris-HCl pH 7.5, 150 mM NaCl, 6 mM MgCl2, 1 mM DTT, 0.1% Tween-20, 0.2 mg/ml BSA; 25 C; 10 min per concentration, then washed). Settings: tags: His6-TwinStrep-SUMO cleaved; N-terminal SNAP kept (SNAP-Surface 488); label: 3' end held by stalled T7 RNA polymerase.

Binder | Kd [nM]
target 1 C7A,U8A (mixed) RNA 1: CACCCGUGCAAAAAUGCAGGGGUCUAAAACUGAGCGGAUAACCUCUCUAUGG RNA 2: GGGAAUGGAUCCACAUCUACGAAUUCGUACCAUAGAGAGGUUAAACGCUCACCGAGAUCGGAAGAGCACACGU | 7.41 ± 0.23
target 1 insA 3' of 19,insA 3' of 4 (mixed) RNA 1: CACCCGUGCAAAAAUGCAGGGGUCUAAAACUGAGCGGAUAACCUCUCUAUGG RNA 2: GGGAAUGGAUCCACAUCUACGAAUUCGUACCAUAAGAGAGGUUAUCCGCAUCACCGAGAUCGGAAGAGCACACGU | 16 ± 1.3
target 1 insU 3' of 17,insC 3' of 5 (mixed) RNA 1: CACCCGUGCAAAAAUGCAGGGGUCUAAAACUGAGCGGAUAACCUCUCUAUGG RNA 2: GGGAAUGGAUCCACAUCUACGAAUUCGUACCAUAGUAGAGGUUAUCCGCCUCACCGAGAUCGGAAGAGCACACGU | 60 ± 14
target 1 U11C,G15A (mixed) RNA 1: CACCCGUGCAAAAAUGCAGGGGUCUAAAACUGAGCGGAUAACCUCUCUAUGG RNA 2: GGGAAUGGAUCCACAUCUACGAAUUCGUACCAUAGAAAGGCUAUCCGCUCACCGAGAUCGGAAGAGCACACGU | 27 ± 3.3
target 1 C2U,C21A (mixed) RNA 1: CACCCGUGCAAAAAUGCAGGGGUCUAAAACUGAGCGGAUAACCUCUCUAUGG RNA 2: GGGAAUGGAUCCACAUCUACGAAUUCGUACAAUAGAGAGGUUAUCCGCUUACCGAGAUCGGAAGAGCACACGU | 28.1 ± 3.1
target 1 insG 3' of 6,insG 3' of 4 (mixed) RNA 1: CACCCGUGCAAAAAUGCAGGGGUCUAAAACUGAGCGGAUAACCUCUCUAUGG RNA 2: GGGAAUGGAUCCACAUCUACGAAUUCGUACCAUAGAGAGGUUAUCCGGCGUCACCGAGAUCGGAAGAGCACACGU | 8 ± 0.4
target 1 insC 3' of 19,insU 3' of 5 (mixed) RNA 1: CACCCGUGCAAAAAUGCAGGGGUCUAAAACUGAGCGGAUAACCUCUCUAUGG RNA 2: GGGAAUGGAUCCACAUCUACGAAUUCGUACCAUCAGAGAGGUUAUCCGUCUCACCGAGAUCGGAAGAGCACACGU | 39 ± 13
target 1 insG 3' of 19,insA 3' of 7 (mixed) RNA 1: CACCCGUGCAAAAAUGCAGGGGUCUAAAACUGAGCGGAUAACCUCUCUAUGG RNA 2: GGGAAUGGAUCCACAUCUACGAAUUCGUACCAUGAGAGAGGUUAUCACGCUCACCGAGAUCGGAAGAGCACACGU | 36.7 ± 2.9
target 1 insG 3' of 10,insG 3' of 8 (mixed) RNA 1: CACCCGUGCAAAAAUGCAGGGGUCUAAAACUGAGCGGAUAACCUCUCUAUGG RNA 2: GGGAAUGGAUCCACAUCUACGAAUUCGUACCAUAGAGAGGUUGAUGCCGCUCACCGAGAUCGGAAGAGCACACGU | 21.8 ± 0.7
target 1 insG 3' of 8,insG 3' of 2 (mixed) RNA 1: CACCCGUGCAAAAAUGCAGGGGUCUAAAACUGAGCGGAUAACCUCUCUAUGG RNA 2: GGGAAUGGAUCCACAUCUACGAAUUCGUACCAUAGAGAGGUUAUGCCGCUCGACCGAGAUCGGAAGAGCACACGU | 13.1 ± 0.6
target 1 C6A,U19G (mixed) RNA 1: CACCCGUGCAAAAAUGCAGGGGUCUAAAACUGAGCGGAUAACCUCUCUAUGG RNA 2: GGGAAUGGAUCCACAUCUACGAAUUCGUACCAGAGAGAGGUUAUCAGCUCACCGAGAUCGGAAGAGCACACGU | 46 ± 4
target 1 complement block 14-16 (mixed) RNA 1: CACCCGUGCAAAAAUGCAGGGGUCUAAAACUGAGCGGAUAACCUCUCUAUGG RNA 2: GGGAAUGGAUCCACAUCUACGAAUUCGUACCAUAGUCUGGUUAUCCGCUCACCGAGAUCGGAAGAGCACACGU | 61 ± 9
target 1 insG 3' of 9,insG 3' of 4 (mixed) RNA 1: CACCCGUGCAAAAAUGCAGGGGUCUAAAACUGAGCGGAUAACCUCUCUAUGG RNA 2: GGGAAUGGAUCCACAUCUACGAAUUCGUACCAUAGAGAGGUUAGUCCGCGUCACCGAGAUCGGAAGAGCACACGU | 8.9 ± 0.6
target 1 A1G,U11G (mixed) RNA 1: CACCCGUGCAAAAAUGCAGGGGUCUAAAACUGAGCGGAUAACCUCUCUAUGG RNA 2: GGGAAUGGAUCCACAUCUACGAAUUCGUACCAUAGAGAGGGUAUCCGCUCGCCGAGAUCGGAAGAGCACACGU | 23.8 ± 1.6
target 1 insU 3' of 13,insU 3' of 7 (mixed) RNA 1: CACCCGUGCAAAAAUGCAGGGGUCUAAAACUGAGCGGAUAACCUCUCUAUGG RNA 2: GGGAAUGGAUCCACAUCUACGAAUUCGUACCAUAGAGAGUGUUAUCUCGCUCACCGAGAUCGGAAGAGCACACGU | 13.7 ± 0.8
target 1 G13A,A14C (mixed) RNA 1: CACCCGUGCAAAAAUGCAGGGGUCUAAAACUGAGCGGAUAACCUCUCUAUGG RNA 2: GGGAAUGGAUCCACAUCUACGAAUUCGUACCAUAGAGCAGUUAUCCGCUCACCGAGAUCGGAAGAGCACACGU | 12 ± 0.7
target 1 U11C,A20U (mixed) RNA 1: CACCCGUGCAAAAAUGCAGGGGUCUAAAACUGAGCGGAUAACCUCUCUAUGG RNA 2: GGGAAUGGAUCCACAUCUACGAAUUCGUACCUUAGAGAGGCUAUCCGCUCACCGAGAUCGGAAGAGCACACGU | 55 ± 7
target 1 G13A,G15U (mixed) RNA 1: CACCCGUGCAAAAAUGCAGGGGUCUAAAACUGAGCGGAUAACCUCUCUAUGG RNA 2: GGGAAUGGAUCCACAUCUACGAAUUCGUACCAUAGAUAAGUUAUCCGCUCACCGAGAUCGGAAGAGCACACGU | 80 ± 40
target 1 insG 3' of 9,insC 3' of 1 (mixed) RNA 1: CACCCGUGCAAAAAUGCAGGGGUCUAAAACUGAGCGGAUAACCUCUCUAUGG RNA 2: GGGAAUGGAUCCACAUCUACGAAUUCGUACCAUAGAGAGGUUAGUCCGCUCACCCGAGAUCGGAAGAGCACACGU | 17.4 ± 1.2
target 1 insG 3' of 14,insC 3' of 5 (mixed) RNA 1: CACCCGUGCAAAAAUGCAGGGGUCUAAAACUGAGCGGAUAACCUCUCUAUGG RNA 2: GGGAAUGGAUCCACAUCUACGAAUUCGUACCAUAGAGAGGGUUAUCCGCCUCACCGAGAUCGGAAGAGCACACGU | 12.1 ± 1
target 1 G5A,G15C (mixed) RNA 1: CACCCGUGCAAAAAUGCAGGGGUCUAAAACUGAGCGGAUAACCUCUCUAUGG RNA 2: GGGAAUGGAUCCACAUCUACGAAUUCGUACCAUAGACAGGUUAUCCACUCACCGAGAUCGGAAGAGCACACGU | 54 ± 17
target 1 G5C,C21A (mixed) RNA 1: CACCCGUGCAAAAAUGCAGGGGUCUAAAACUGAGCGGAUAACCUCUCUAUGG RNA 2: GGGAAUGGAUCCACAUCUACGAAUUCGUACAAUAGAGAGGUUAUCCCCUCACCGAGAUCGGAAGAGCACACGU | 27 ± 5
target 1 insA 3' of 22,insA 3' of 8 (mixed) RNA 1: CACCCGUGCAAAAAUGCAGGGGUCUAAAACUGAGCGGAUAACCUCUCUAUGG RNA 2: GGGAAUGGAUCCACAUCUACGAAUUCGUACACAUAGAGAGGUUAUACCGCUCACCGAGAUCGGAAGAGCACACGU | 20.9 ± 1.3
target 1 insC 3' of 14,insA 3' of 7 (mixed) RNA 1: CACCCGUGCAAAAAUGCAGGGGUCUAAAACUGAGCGGAUAACCUCUCUAUGG RNA 2: GGGAAUGGAUCCACAUCUACGAAUUCGUACCAUAGAGACGGUUAUCACGCUCACCGAGAUCGGAAGAGCACACGU | 47 ± 10
target 1 insU 3' of 13 (mixed) RNA 1: CACCCGUGCAAAAAUGCAGGGGUCUAAAACUGAGCGGAUAACCUCUCUAUGG RNA 2: GGGAAUGGAUCCACAUCUACGAAUUCGUACCAUAGAGAGUGUUAUCCGCUCACCGAGAUCGGAAGAGCACACGU | 11.4 ± 1.5
target 1 insG 3' of 7,insC 3' of 5 (mixed) RNA 1: CACCCGUGCAAAAAUGCAGGGGUCUAAAACUGAGCGGAUAACCUCUCUAUGG RNA 2: GGGAAUGGAUCCACAUCUACGAAUUCGUACCAUAGAGAGGUUAUCGCGCCUCACCGAGAUCGGAAGAGCACACGU | 9.8 ± 0.6
target 1 insU 3' of 21,insU 3' of 21 (mixed) RNA 1: CACCCGUGCAAAAAUGCAGGGGUCUAAAACUGAGCGGAUAACCUCUCUAUGG RNA 2: GGGAAUGGAUCCACAUCUACGAAUUCGUACCUUAUAGAGAGGUUAUCCGCUCACCGAGAUCGGAAGAGCACACGU | 72 ± 13
target 1 insA 3' of 7,insU 3' of 5 (mixed) RNA 1: CACCCGUGCAAAAAUGCAGGGGUCUAAAACUGAGCGGAUAACCUCUCUAUGG RNA 2: GGGAAUGGAUCCACAUCUACGAAUUCGUACCAUAGAGAGGUUAUCACGUCUCACCGAGAUCGGAAGAGCACACGU | 11.4 ± 0.33
